Assay results taken from patent publication US20230322924A1 (Janssen / Centocor, published 2023).

Columns and labels:
Cyno CD33 ECD-HSA [1] = target: T1, Cyno CD33 ECD-HSA (cynomolgus monkey); assay: ProteOn SPR, mAb captured by anti-human Fc, 1:1 Langmuir fit
T1 construct: Cyno CD33 extracellular domain fused to monomeric human serum albumin and a six-histidine tag; also called C33W1

Human CD33 ECD-HSA [2] = target: Human CD33 ECD-HSA (human); assay: as above
Cyno CD33 ECD-HSA [3] = target: T1, Cyno CD33 ECD-HSA; assay: SPRi off-rate screen (IBIS MX96), mAb captured by anti-human Fc; column head prints Cyno CD33 binding KD
[4] = target: T2, Human CD33 full length, expressed on HEK293F cells (human, UniProt P20138 18-364); assay: flow cytometry, HEK293F cells expressing human CD33
T2 construct: HEK293F cells transduced with lentivirus containing full length human CD33; also called huCD33
T2 sequence (P20138 18-364 limits assumed): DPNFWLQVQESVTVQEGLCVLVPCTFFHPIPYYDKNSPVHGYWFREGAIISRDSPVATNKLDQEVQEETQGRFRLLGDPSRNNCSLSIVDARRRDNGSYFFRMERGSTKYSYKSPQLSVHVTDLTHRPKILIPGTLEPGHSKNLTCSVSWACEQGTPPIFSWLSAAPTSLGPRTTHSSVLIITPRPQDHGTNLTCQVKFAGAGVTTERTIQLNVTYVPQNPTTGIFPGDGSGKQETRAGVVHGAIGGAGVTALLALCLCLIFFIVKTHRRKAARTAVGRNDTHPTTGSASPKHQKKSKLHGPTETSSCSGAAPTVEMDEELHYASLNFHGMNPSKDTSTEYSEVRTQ

Human CD33 ECD-HSA [5] = target: Human CD33 ECD-HSA (human); assay: SPRi off-rate screen (IBIS MX96), mAb captured by anti-human Fc; column head prints KD
[6] = target: T3, Cyno CD33 full length, expressed on HEK293F cells (cynomolgus monkey); assay: flow cytometry, HEK293F cells expressing cyno CD33
T3 construct: HEK293F cells transduced with lentivirus containing full length cyno CD33 (Genbank XP_005590138.1); also called cyCD33

Cyno CD33 full length = target: T4, Cyno CD33 full length (cynomolgus monkey); assay: flow cytometry on HEK293F cells expressing cyno CD33
T4 construct: also called cyCD33
Method: (§1) The purified antibodies were assessed for binding to stably transfected HEK293F cells expressing human CD33 or cyno CD33 (generation described above) along with the parental HEK293F as negative control. Cells were harvested from tissue culture flasks using non-enzymatic dissociation buffer (Thermo Scientific). The flasks were rinsed twice with PBS and dissociation buffer was added to the flask, and the flask was incubated for 10 minutes at 37° C. until the cells became non-adherent. The cells were centrifuged at 300 g for 5 minutes and resuspended at 1.0×10⁶ cells/ml in staining buffer (Becton Dickinson; Franklin Lakes, NJ). 50,000 cells/well of each cell type was plated in 50 μl of staining buffer in round bottom plates (Becton Dickinson). […] 100 μl staining buffer was added to all wells of each plate, the plates were spun at 300 g for 5 min, the buffer was removed, 200 μl staining buffer was added to all wells of each plate, the plates were spun at 300 g for 5 min, and the buffer was removed. 50 μl of 2 μg/ml of Goat-anti-human Fc AF647 secondary antibody (Jackson Immunoresearch; West Grove, PA) was added to all wells of the plates, and the plates were incubated for 30 min at 4° C. 100 μl staining buffer was added to all wells of the plates, the plates were spun at 300 g for 5 min, and the buffer was removed. 200 μl running buffer (running buffer is Staining buffer, 1 mM EDTA, 0.1% Pluronic Acid) was added to all wells of the plates, the plates were spun at 300 g for 5 min, and the buffer was removed. 30 μl running buffer containing Sytox Green live/dead dye (ThermoFisher) was added to all wells with cells and the plates were read on an iQue IntelliCyt flow cytometer. Cells were gated on forward vs. side scatter to eliminate debris, then on singlets and then on live cells which excluded the Sytox stain. Antibody binding was assessed by the mean fluorescence intensity in the AF647 channel.
(§2) The OmniMouse panel (8 mAbs total) was generated separately and characterized further for binding to cells.

Human CD33 ECD-HSA [7] = target: T5, Human CD33 ECD-HSA (human); assay: ProteOn SPR, mAb captured on anti-human Fc, antigen as analyte
T5 construct: CD33 ECD fused at the C-terminus to monomeric HSA (C58S) and a six-histidine tag; also called C33W2; huCD33 ECD-HSA
Method: (§3) The panel of mAbs was then further characterized for full affinity analysis as well as epitope binning. The binding of anti-CD33 mAbs to recombinant human CD33 ECD-HSA (C33W2) and cyno CD33 ECD-HSA (C33W1) was measured by ProteOn SPR (Bio-Rad). […] Different mAbs were captured on the anti-human Fc IgG surface at 0.25 or 0.5 μg/ml (160-300 RU) in vertical ligand orientation, with the 6th ligand channel as no ligand surface control. Human and cyno CD33-HSA proteins at 0.3 μM concentration in 3-fold dilution series of 5 concentrations flew in as analyte to bind to captured mAbs in the horizontal orientation. A buffer sample was also injected in the 6th channel to monitor the dissociation of captured mAb and baseline stability. […] The raw biding data were processed by double referencing after subtracting the response data from: 1) the inter-spot to correct for the non-specific interactions between the Ag and the empty chip surface; 2) the buffer channel to correct for baseline drifting due to the dissociation of captured mAb surface over time. The processed data at all antigen concentrations for each mAb were globally fit to a 1:1 simple Langmuir binding model to extract estimates of the kinetic (kₒₙ, koff) and affinity (Kd) constants.

Cyno CD33 ECD-HSA [8] = target: T6, Cyno CD33 ECD-HSA (cynomolgus monkey); assay: as above
T6 construct: Cyno CD33 ECD fused to HSA and a six-histidine tag; also called C33W1
Method: as §3

Human CD33 full length = target: T7, Human CD33 full length (human, UniProt P20138 18-364); assay: flow cytometry on HEK293F cells expressing human CD33
T7 construct: also called huCD33
T7 sequence (P20138 18-364 limits assumed): as above
Method: as §1, §2

Row | Binder | Kd (Cyno CD33 ECD-HSA [1]) [nM] | koff (Cyno CD33 ECD-HSA [1]) [s⁻¹] | kon (Cyno CD33 ECD-HSA [1]) [M⁻¹ s⁻¹] | Kd (Human CD33 ECD-HSA [2]) [nM] | koff (Human CD33 ECD-HSA [2]) [s⁻¹] | kon (Human CD33 ECD-HSA [2]) [M⁻¹ s⁻¹] | koff (Cyno CD33 ECD-HSA [3]) [s⁻¹] | MFI at 0 nM mAb (background) [4] [MFI] | MFI at 0.6 nM mAb [4] [MFI] | MFI at 6 nM mAb [4] [MFI] | MFI at 60 nM mAb [4] [MFI] | koff (Human CD33 ECD-HSA [5]) [s⁻¹] | MFI at 0 nM mAb (background) [6] [MFI] | MFI at 0.6 nM mAb [6] [MFI] | MFI at 6 nM mAb [6] [MFI] | MFI at 60 nM mAb [6] [MFI] | MFI at 0 nM (background) (Cyno CD33 full length) [MFI] | MFI at 0.6 nM (Cyno CD33 full length) [MFI] | MFI at 6 nM (Cyno CD33 full length) [MFI] | MFI at 60 nM (Cyno CD33 full length) [MFI] | also measured
1 | C33B911 (antibody, V domains shown, OMNIMouse-derived anti-CD33 mAb; same V regions as C33B903; also called C33H251/C33L117; C33F549) VH: EVQLVESGGGLVQPGRSLRLSCAASGFTFDDYAMHWVRQAPGKGLEWVSGIGWSGGSIVYADSVKGRFKISRDNAKNSLYLQMNSLRAEDTALYYCAKDSPYGDFFDYWGQGTLVTVSS VL: not shown | – | – | – | – | – | – | – | – | – | – | – | – | – | – | – | – | 97.9 | 1940 | 7730 | 17000 | Kd (Human CD33 ECD-HSA [7]): 0.0378 nM; koff (Human CD33 ECD-HSA [7]): 4.14e-05 s⁻¹; kon (Human CD33 ECD-HSA [7]): 1.1e+06 M⁻¹ s⁻¹; Kd (Cyno CD33 ECD-HSA [8]): 1 nM; koff (Cyno CD33 ECD-HSA [8]): 0.00115 s⁻¹; kon (Cyno CD33 ECD-HSA [8]): 1.15e+06 M⁻¹ s⁻¹; MFI at 0 nM (background) (Human CD33 full length): 114 MFI; MFI at 0.6 nM (Human CD33 full length): 13500 MFI; MFI at 6 nM (Human CD33 full length): 100000 MFI; MFI at 60 nM (Human CD33 full length): 238000 MFI
2 | C33B913 (antibody, V domains shown, OMNIMouse-derived anti-CD33 mAb; same V regions as C33B905; also called C33H253/C33L119; C33F551) VH: EVQLLESGGGLVQPGGSLKLSCTASGFTFRSYAMSWVRQAPGKGLEWVSAINGYGDGRYYADSVKGRFTISRDNSKNTLYLQMNSLRAEDTAVYSCAKDQGFGELFFDYWGQGTLVTVSS VL: not shown | – | – | – | – | – | – | – | – | – | – | – | – | – | – | – | – | 106 | 35200 | 36900 | 40700 | Kd (Human CD33 ECD-HSA [7]): 0.969 nM; koff (Human CD33 ECD-HSA [7]): 0.00064 s⁻¹; kon (Human CD33 ECD-HSA [7]): 660000 M⁻¹ s⁻¹; Kd (Cyno CD33 ECD-HSA [8]): 0.12 nM; koff (Cyno CD33 ECD-HSA [8]): 0.000308 s⁻¹; kon (Cyno CD33 ECD-HSA [8]): 2.56e+06 M⁻¹ s⁻¹; MFI at 0 nM (background) (Human CD33 full length): 128 MFI; MFI at 0.6 nM (Human CD33 full length): 205000 MFI; MFI at 6 nM (Human CD33 full length): 409000 MFI; MFI at 60 nM (Human CD33 full length): 519000 MFI

Continued, in another order:

Row | Kd (Cyno CD33 ECD-HSA [1]) [nM] | koff (Cyno CD33 ECD-HSA [1]) [s⁻¹] | kon (Cyno CD33 ECD-HSA [1]) [M⁻¹ s⁻¹] | Kd (Human CD33 ECD-HSA [2]) [nM] | koff (Human CD33 ECD-HSA [2]) [s⁻¹] | kon (Human CD33 ECD-HSA [2]) [M⁻¹ s⁻¹] | koff (Cyno CD33 ECD-HSA [3]) [s⁻¹] | MFI at 0 nM mAb (background) [4] [MFI] | MFI at 0.6 nM mAb [4] [MFI] | MFI at 6 nM mAb [4] [MFI] | MFI at 60 nM mAb [4] [MFI] | koff (Human CD33 ECD-HSA [5]) [s⁻¹] | MFI at 0 nM mAb (background) [6] [MFI] | MFI at 0.6 nM mAb [6] [MFI] | MFI at 6 nM mAb [6] [MFI] | MFI at 60 nM mAb [6] [MFI] | MFI at 0 nM (background) (Cyno CD33 full length) [MFI] | MFI at 0.6 nM (Cyno CD33 full length) [MFI] | MFI at 6 nM (Cyno CD33 full length) [MFI] | MFI at 60 nM (Cyno CD33 full length) [MFI] | Binder | also measured
3 | 1.01 | 0.000472 | 467000 | 0.35 | 0.000124 | 357000 | 0.000477 | 172 | 90.3 | 126 | 798 | 0.000238 | 98.4 | 77.3 | 132 | 593 | – | – | – | – | C33B124 (antibody, IgG1, V domains shown, huIgG1 F405L; also called C33F129; C33H73/C33L32) VH: EVQLLESGGGLVQPGGSLRLSCAASRFTFSSYAMTWVRQAPGKGLEWVSTINISGGSTYYADSVKGRFTISRDNSKNTLYLQMNSLRAEDTAVYYCTKGGYSSGPFDYWGQGTLVSVSS VL: SYELTQPPSVSVSPGQTASITCSGDKLGDKYVRWYQQKTGQSPVLVMYQDSKRPSGIRERFYGSNSGNTATPTISGTQAVDEAEYYCQAWDSSTGVVFGGGTKLTVL | –
4 | 0.527 | 0.000259 | 492000 | 1.32 | 0.000425 | 323000 | 0.000266 | 88.9 | 115 | 410 | 5800 | 0.000384 | 82.4 | 109 | 249 | 4610 | – | – | – | – | C33B80 (antibody, IgG1, V domains shown, huIgG1 F405L; also called C33F85; C33H76/C33L39) VH: EVQLLESGGGLVQPGGSLRLSCAASGFTFNYAMSWVRQAPGKGLEWVSAISGSGGSTYYADSVKGRFTISRDISKNTLYLQMNSLRAEDTAVYYCARTYNSGYYDGDFDYWGQGTLVTVSS VL: QSALTQPASVSGSPGQSIPISSTGTSSDDGKNNIVSWYQQHPGKAPKLMIYKDSKRPSGVSNRFSGSKSGNTASLTISGLQADDEADYHCCSYAGASNHVVFGGGTKLTVL | –
